According to article PMC10948360:

What was measured:
[1] = target: SNAP-tagged full-length kinesin heavy chain (Khc FL), Alexa Fluor 647-labeled (UniProt P17210); test: single-molecule TIRF colocalisation and motility assay on microtubules; Khc RNP mixes assembled at 500 nM of each component, diluted to 6.25 nM in BRB12 with 2.5 mM MgATP; taxol-stabilized microtubules immobilized by biotin-streptavidin; Cy3-osk 3′ UTR present; conditions: other: single-molecule TIRF colocalisation and motility assay on microtubules
SNAP-tagged full-length kinesin heavy chain (Khc FL), Alexa Fluor 647-labeled, sequence (P17210 whole entry): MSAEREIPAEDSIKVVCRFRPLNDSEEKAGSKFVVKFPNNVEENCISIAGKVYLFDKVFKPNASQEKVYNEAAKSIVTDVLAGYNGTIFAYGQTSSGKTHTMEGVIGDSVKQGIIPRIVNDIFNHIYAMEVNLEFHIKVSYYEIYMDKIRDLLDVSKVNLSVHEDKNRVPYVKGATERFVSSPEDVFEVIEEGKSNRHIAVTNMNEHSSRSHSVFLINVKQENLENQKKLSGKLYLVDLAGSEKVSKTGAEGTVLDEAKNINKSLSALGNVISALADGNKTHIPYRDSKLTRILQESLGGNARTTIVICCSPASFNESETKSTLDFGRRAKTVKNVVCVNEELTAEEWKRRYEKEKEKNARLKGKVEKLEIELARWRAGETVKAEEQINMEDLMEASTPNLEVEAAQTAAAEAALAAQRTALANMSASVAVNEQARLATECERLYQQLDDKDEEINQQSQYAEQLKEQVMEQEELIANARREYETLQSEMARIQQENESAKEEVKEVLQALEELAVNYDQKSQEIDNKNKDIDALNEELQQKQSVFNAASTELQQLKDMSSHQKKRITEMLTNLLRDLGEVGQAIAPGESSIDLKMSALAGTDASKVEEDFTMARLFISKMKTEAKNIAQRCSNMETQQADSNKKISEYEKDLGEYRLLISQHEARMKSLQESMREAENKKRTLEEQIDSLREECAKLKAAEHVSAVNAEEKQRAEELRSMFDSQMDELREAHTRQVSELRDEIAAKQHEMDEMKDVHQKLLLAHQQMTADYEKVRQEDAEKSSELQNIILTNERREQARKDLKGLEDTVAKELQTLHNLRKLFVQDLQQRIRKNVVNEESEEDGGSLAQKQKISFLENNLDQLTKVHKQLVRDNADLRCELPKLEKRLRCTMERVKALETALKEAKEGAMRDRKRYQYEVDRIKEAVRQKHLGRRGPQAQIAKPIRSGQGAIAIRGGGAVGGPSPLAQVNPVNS

[2] = target: SNAP-tagged full-length kinesin heavy chain (Khc FL), Alexa Fluor 647-labeled (Drosophila) (UniProt P17210); test: as above
SNAP-tagged full-length kinesin heavy chain (Khc FL), Alexa Fluor 647-labeled (Drosophila), sequence (P17210 whole entry): as above

[3] = target: SNAP-tagged full-length kinesin heavy chain (Khc FL), Alexa Fluor 647-labeled (Drosophila) (UniProt P17210)
[4] = target: Full-length kinesin heavy chain (Khc FL), unlabeled (Drosophila) (UniProt P17210); test: mass photometry; coexpressed, copurified Khc–Tm1 complex at 20 nM in PBS
Full-length kinesin heavy chain (Khc FL), unlabeled (Drosophila), sequence (P17210 whole entry): as above

For “SNAP-tagged full-length Tm1-I/C (Tm1 FL), Alexa Fluor 488-labeled”, the “percent of Khc molecules bound to Tm1, corrected for the labeling efficiency of Tm1” value [1] was ~95% of Khc molecules were bound to Tm1.

“SNAP-tagged full-length Tm1-I/C (Tm1 FL), Alexa Fluor 488-labeled (natural protein)” showed a percent of Khc signals colocalizing with Tm1 signals [2] of 44.6% and a mean velocity of microtubule-associated Khc FL complexes in the TIRF motility assay in the presence of Tm1 FL (0.240 µm s^−1 without Tm1) [3] of 0.099 µm s^−1.

For “SNAP-Tm1 1-335, fluorescently labeled (domain or fragment)”, the percent of Khc signals colocalized with Tm1 signals [2] was 71%.

In the case of “Full-length Tm1-I/C (Tm1 FL) coexpressed and copurified with Khc FL (natural protein)”, the stoichiometry N [4] is reported as 2 Khc per Tm1.
